The values that follow come from paper PMC2744598.

The target of assay [1] is Ddi1 UBA, fluorescent free domain (yeast) (UniProt P40087). Briefly: fluorescence polarisation. In general terms: Polarisation of emitted light reports the rotation of a fluorescent probe.
Assay [2] has as its target Dsk2 UBA, fluorescent free domain (yeast) (UniProt P48510). Briefly: fluorescence polarisation.
In another assay the target is Ede1_rhodamine (yeast) (UniProt P34216). Briefly: fluorescence polarisation.
The target in assay [3] is fluorescein-labeled hHR23A-UBA1 (human). Briefly: fluorescence polarisation.
The next assay has as its target GST-Ede1 UBA (yeast) (UniProt P34216). Briefly: SPR. In general terms: In SPR one partner is held on a chip, and binding of the other changes the refractive index at the surface.
Assay [4] has as its target GST-His/GST-Ede1 heterodimer of the functionally monomeric mixture (not stated | yeast) (UniProt P34216). Briefly: SPR.
Another assay deals with GST-hHR23A UBA1 (human). Briefly: SPR.
Assay [5] deals with GST-DRM2 UBA1 (Arabidopsis). Briefly: SPR.

Sequence of Ede1_rhodamine (yeast) (P34216 1338-1380): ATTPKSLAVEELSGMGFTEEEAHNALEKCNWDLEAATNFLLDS
Sequence of GST-Ede1 UBA (yeast) (P34216 1338-1380): as above
Sequence of Dsk2 UBA, fluorescent free domain (yeast) (P48510 327-371): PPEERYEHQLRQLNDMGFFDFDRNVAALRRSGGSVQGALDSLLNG
Sequence of Ddi1 UBA, fluorescent free domain (yeast) (P40087 389-428): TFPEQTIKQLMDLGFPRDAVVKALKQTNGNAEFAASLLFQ

The term Kd denotes the equilibrium constant for the complex coming apart. “K63-linked tetraubiquitin (from UniProt P0CG48 1-76)”: the Kd in assay [1] came to 92 µM; in assay [2] it was 2.2 µM; with Ede1_rhodamine (yeast), 54 µM; in assay [3], 30 µM; with GST-Ede1 UBA (yeast) it was 6 µM; in assay [4], 23 µM. Moreover, the Kd with GST-hHR23A UBA1 (human) was found to be 4.7 µM.

Turning to “K48-linked tetraubiquitin (from UniProt P0CG48 1-76)”, the Kd in assay [1] was determined as 50 µM; in assay [2], 1.4 µM; with Ede1_rhodamine (yeast) it was 31 µM; in assay [3] it was 9 µM; with GST-Ede1 UBA (yeast), 25 µM; in assay [4] it was 44 µM.

On to “K48-linked diubiquitin (from UniProt P0CG48 1-76)”, for which the Kd came out at 86 µM with Ede1_rhodamine (yeast), 140 µM in assay [5], 110 µM with GST-Ede1 UBA (yeast) and 36 µM with GST-hHR23A UBA1 (human).

Consider “K63-linked diubiquitin (from UniProt P0CG48 1-76)”, for which the Kd was 120 µM with Ede1_rhodamine (yeast), 89 µM in assay [5], 48 µM in the assay with GST-Ede1 UBA (yeast) and 26 µM with GST-hHR23A UBA1 (human).
